Experimental data from publication PMC10542519.

Experiments:
[1] = molecular target: PhiPA3 ChmC-ΔC (residues 204-251 removed) (Pseudomonas phage PhiPA3); experiment: SEC-MALS
[2] = molecular target: PhiPA3 Chimallin C (ChmC; gp61), full-length (Pseudomonas phage PhiPA3); experiment: SEC-MALS

Row | Substance | stoichiometry N [1] | stoichiometry N [2]
1 | PhiPA3 ChmC-ΔC (residues 204-251 removed) (domain or fragment) | 4 | –
2 | PhiPA3 Chimallin C (ChmC; gp61), full-length (natural protein) | – | 4
